System: rumen fluid
Test: in vitro ruminal fermentation, 22 muramidases, 12 h (Example 4)
Design: species or system cow; DMd: unit not given here
Conditions: muramidase 0.20 mg/40 ml; for Acetate / Butyrate / Propionate: VFA production after 12 h; for DMd: dry matter digestibility after 12 h of ruminal fermentation in vitro; for Total VFA: sum of VFA after 12 h; for Carbon in VFA: summed carbon in VFA after 12 h
Description: The trial was performed by Alimetrics (Alimetrics Ltd, Koskelontie 19B, FIN-02920 Espoo, Finland) using 120 mL serum bottles as fermentation vessels. The fermentation preparation and procedure is presented in Kettunen et al., (Kettunen H., J. Vuorenmaa, D. Gaffney and J. Apajalahti (2016): Yeast hydrolysate product enhances ruminal fermentation in vitro. J. App. Anim. Nutr., Vol. 4; e1; page 1 of 7). In short, the method is as follows: All bottles were initially filled with 1 g of feed DM composed from corn silage, barley meal, soybean meal, at the amounts of 0.5, 0.4, and 0.1 g DM, respectively. Subsequently, the bottles were flushed with CO2 passed through a hot copper catalyst for O2 scavenging and sealed with thick butyl rubber stopper. Anaerobic, reduced and temperature adjusted (+38° C.) artificial saliva buffer solution (Modified from Agriculture Handbook No. 379, (USDA, Washington, D.C., 1975), volume of 37.65 ml), freshly strained rumen fluid (5% inoculum; volume of 2 ml), and test compounds (volume of 0.35 ml) was introduced into the fermentation vessels under the oxygen-free CO2 flow. Following rumen fluid was collected from a ruminal cannulated cow. Rumen fluid was pumped directly from the rumen into a preheated thermos and immediately closed, and transported to Alimetrics laboratory. The rumen fluid was used for inoculation within 2 hours of harvest. To ensure that both liquid and particle associated ruminal microbes were present in the inoculum both fractions were obtained. Liquid and solid fractions were strained through a metal mesh (grid size 3×3 mm) under anaerobic conditions prior to buffer dilution.
Following inoculation with rumen fluid, buffer and test solution, the vessels were sealed with the butyl rubber septum's. All fermentation vessels were inoculated in random order to prevent the possible block effects. Inoculation time for each fermentation vessel was registered and was taken into account op on each sampling to ensure that duration of the fermentation was the same for each sample. The fermentation was continued for 12 h in a gyratory shaker at +38° C. Fermentation gas produced was measured and relived by collection of the fermentation gas in syringes at time 3, 6, 9, and 12 h. Feed residues were measured after 12 h fermentation.
The trial design was a dosage response, complete randomized design with 27 treatments using 145 fermentation vessels according to table 5. […] Negative control was supplemented with the same buffer solution that was used for diluting the enzymes to reach the same liquid volume as the supplemented fermentation vessels. The ionophore Monensin (Monensin sodium salt, 90-95% TLC (Sigma Aldrich; Product code: M5273-1G)) was chosen as a positive control because it is a ruminants feed additive that affects volatile fatty acids (VFA) production.
Liquid Samples Obtained at 12 h were Analyzed for the Concentration of VFA (Acetate, Propionate, butyrate, and valerate) by GC-FID using a glass column packed with 80/120 carbopack B-DA/4% Carbowax stationary and helium as a carrier gas (Kettunen H., J. Vuorenmaa, T. Rinttilä, H. Grönberg, E. Valkonen and J. Apajalahti (2015): Natural resin acid-enriched composition as a modulator of intestinal microbiota and performance enhancer in broiler chicken. J. App. Anim. Nutr., Vol. 3; e2; page 1 of 9).
Digestibility of dry matter was quantified by determination of dry matter in the original feed matrix and in all fermentation vessels after 12 h of fermentation. Feed residues from the fermentation vessels were obtained by filtration tared sintered glass filters, washed with water and dried at 105° C. for 12 hours. Finally, the glass filters are weighed for the residual feed dry matter.
Dry matter digestibility (DMd) was calculated at the ratio between feed residues after end fermentation and the dry matter fed. […]

Row | Molecule | Acetate | Butyrate | Propionate | DMd | Total VFA | Carbon in VFA
1 | N: mature muramidase polypeptide from Ovatospora brasiliensis, GH25; N in Example 4 (protein, listed as Ovatospora brasiliensis) FDISNWQPAGTVDFAAAYSSGARFVIIKATEGTSYIDPSFSSHYTKATNAGFIRGGYHFAHPGETTGAAEADYFIAHGGGWSNDGITLPGMLDLESENKGQCWGLSTSAMVSWIKSFSDRYKSRTGVYPLIYTNPSWWSACTGNSNAFVNTNPLVLARYASAPGTIPGGWPYQTIWQNSDSYAYGGDSDIFNGSLDRLKALAKGS | 49.3 mmol/L | 7.2 mmol/L | 40.8 mmol/L | 0.59 | 98 mmol/L | 253 mmol/L
2 | W: mature muramidase polypeptide from Chaetomium sp., novel MUR polypeptide; W in Example 4 (protein, Chaetomium sp) YPITGDPLNCRSGPGTSYAIKKSYTKGADIKISCQTEGTSVNGNSIWDKTQDGCYVADFYVKTGVDGYVTKKCSGGGGDTGGGSGGIPGPVKDDYPYKSSCGGVDPWNYYKCQCTSFVAWRINKRLGIKFHNQYKGTNWGNANTWDNAAKKTGVKVNSTPKPGAIAQSNAGNYGHVAWVTAVNGNKVTIEEYNWGKREGYGKRTVDKSAFNYIHVKA | 48.9 mmol/L | 6.7 mmol/L | 40.9 mmol/L | 0.59 | 97 mmol/L | 250 mmol/L
3 | T: mature muramidase polypeptide from Chaetomium sp., novel MUR polypeptide; T in Example 4 (protein, Chaetomium sp) YHIKGSIVNCRAGPGTSHAVKKTYAKGQNVQISCQTTGNIIHGNNIWDLTQDGCYVADYYVKTGTDGFVTDKCSSSGNSGVSGTSTSSVGGAAGPMKDDYPYKSNCEGTDPWLYFKCQCTSFVAWRINERLGIKFHNQYKGVNWGDANTWDDAAKRTGVTVNKTPKPGCVAQTDKGTWGHVAWVAAVGDETVTIEEYNYGGKERYGTRTVPKGEFDYIHVKN | 53.6 mmol/L | 7.8 mmol/L | 45.1 mmol/L | 0.57 | 107 mmol/L | 277 mmol/L
4 | Z: mature muramidase polypeptide from Penicillium wellingtonense, novel MUR polypeptide; Z in Example 4 (protein, Penicillium wellingtonense) YPITGDVVNCRSGPGTTYDVVKSYKLNADVSITCQAPGTDVKGDSVWDKTADGCYVADYYVKTGSSSYVTTKCGGDDDGGDNDGGSSGNLPGLTSTQSKHAKDIIAEAKSEDLGRQGCLAGIATAIVESNILIYANSGVPESLKYPHDAVGSDHDSVGIFQQRAMFYKDIAADMDAGKSAGQFFGKMKAVSGWKSMDVGTLCQKVQGSAYPSRYAEQVSKAEKICKAGGL | 48.7 mmol/L | 6.9 mmol/L | 39.6 mmol/L | 0.56 | 96 mmol/L | 247 mmol/L
5 | Y: mature muramidase polypeptide from Ovatospora brasiliensis, novel MUR polypeptide; Y in Example 4 (protein, listed as Ovatospora brasiliensis) YPVKADSLNCRSGPGTSYKVVKTYKKGADIKISCQTEGPSVNGDNLWIKTQDGCYVADYYVKTGTNGYVAKKCSSGGSTGGGSGGGKGNLPGLNAKQSSHARAIVAQAKKDGVGLHGCEAGIATALVESGIKVYANKKVPASLKYPHDAVGSDHDSIGIFQQRAVYYPNIAADMDPARSAHQFFAKMKGVSGWKTMAVGKLCQKVQVSAYPDRYAKRVSEATKICKAAGI | 50.8 mmol/L | 6.1 mmol/L | 43.1 mmol/L | 0.57 | 100 mmol/L | 258 mmol/L
6 | U: mature muramidase polypeptide from Zopfiella Sp., novel MUR polypeptide; U in Example 4 (protein, Zopfiella sp) YPIKGDTVNCRSGPGTSFAVKKTYAKGKDIKITCQTTGTSVNGNNIWDKTSDGCYVADYYVKTGKDGFVTDKCDASSVPKPPATKIPGPVTNDYPYKSSCGGVDPWNYYKCQCTSFVAWRVNKRLGKKFHNRYKGHAWGNANQWDEAAKQSGVKVNSTPKPGCIAQTNAGSYGHVAWVTAVGKDTVTIEEYNWNKKLGYGTRTVAKSKFNYIHLEP | 49.1 mmol/L | 7.1 mmol/L | 40.5 mmol/L | 0.60 | 97 mmol/L | 251 mmol/L
7 | S: mature muramidase polypeptide from Aspergffius sp., novel MUR polypeptide; S in Example 4 (protein, listed as Aspergillus sp.) YPVKADVHCRSGPGTSYSIVKTYSTGTQISVSCQAAGTDVDGDQLWDKTSDGCYVSDYYVSTGSSNYVTSHCPTEYAIKTDVNCRSGPGTNYGIVKTYNQGVMVSLNCQASGTDVDGDSLWDKTSDGCYVSDYYVATGSSSYVTSACSGSSSSGGGGSSSSGNLPSLDSTQSAHARAIIGEAKSQNVGRQGCLAGIATALVESSMLMYANSNVAASLSYPHDAVGSDYDSVGLFQQRVSIYTNLAADMDAAQSAGQFFDEMKKVSGWETMNVGDLCQEVQRSAYPDRYAGEVSTAESICSAGGL | 49.4 mmol/L | 7.1 mmol/L | 41.2 mmol/L | 0.58 | 98 mmol/L | 254 mmol/L
8 | V: mature muramidase polypeptide from Acremonium exiguum, novel MUR polypeptide; V in Example 4 (protein, listed as Acremonium exiguum) RSIPIVARAYPGLDDVQSRNAEAALGEIRAEGINPARQACLAVISTALQESELYIYANPAVPESMNYPHDREGGDQDSVGMFQQRPEWYPDIAADMSASGSTRQFLAAMLQVPGWQTMEVSALDQEVQKAEAGNLYGQRIPLATQVCDAAGF | 49.2 mmol/L | 7.1 mmol/L | 40.6 mmol/L | 0.59 | 97 mmol/L | 252 mmol/L

Source: patent US20210037856A1, “Ruminant Feed Composition Comprising A Muramidase” (Novozymes A/S, priority 2018, published 2021)
